Measured values from patent US20150166656A1.
Where no end group is shown, it is not given here. [ ]: non-standard residue; d: D form. pGlu = O=C1CC[C@@H](C(=O)O)N1

B1: CCK (26-33) unsulfated (peptide)
peptide: DYMGWMDF-NH2
B2: hG17(12-17)-Gly18 peptide … (peptide)
peptide: CPPPPSSYGWMDFG
B3: glycine-extended gastrin-17 (G17-Gly) (peptide)
peptide: [pGlu]GPWLEEEEEAYGWMDFG
modifications: ends and bridges not checked
B4: hG17(9) (peptide)
peptide: EGPWLEEEE
B5: human gastrin-17 (G17) (peptide)
peptide: EGPWLEEEEEAYGWMDF
modifications: N-terminal pyroglutamic acid (pE); C-terminal Phe-NH2 (amide)
B6: human gastrin-34 (G34) (peptide)
peptide: [pGlu]LGPQGPPHLVADPSKKEGPWLEEEEEAYGWMDF-NH2
modifications: ends and bridges not checked

Experiments:
MAb 458-2 = test: MAb inhibition ELISA; free peptide inhibits 458-2 binding to the coated target conjugate
MAb 458-3 [1] = test: MAb inhibition ELISA; free peptide inhibits 458-3 binding to the coated target conjugate
MAb 458-4 = test: MAb inhibition ELISA; free peptide inhibits 458-4 binding to the coated target conjugate
MAb 458-1 [2] = test: MAb inhibition ELISA; free peptide inhibits 458-1 binding to the coated target conjugate
MAb 458-5 = test: MAb inhibition ELISA; free peptide inhibits 458-5 binding to the coated target conjugate
MAb 445-1 = test: MAb inhibition ELISA; free peptide inhibits 445-1 binding to coated hG34(16-34)-Gly 35-BSA
MAb 445-2 = test: MAb inhibition ELISA; free peptide inhibits 445-2 binding to coated hG34(16-34)-Gly 35-BSA
MAb 400-2 = test: MAb inhibition ELISA; free peptide inhibits 400-2 binding to coated hG17(1-9)-“Ala”-BSA
MAb 400-4 = test: MAb inhibition ELISA; free peptide inhibits 400-4 binding to coated hG17(1-9)-“Ala”-BSA
MAb 458-1 [3] = test: MAb inhibition ELISA; free peptide against 458-1 binding to the coated target conjugate
MAb 400-3 = test: MAb inhibition ELISA; free peptide inhibits 400-3 binding to coated hG17(1-9)-“Ala”-BSA
MAb 400-1 = test: MAb inhibition ELISA; free peptide inhibits 400-1 binding to coated hG17(1-9)-“Ala”-BSA
MAb 458-3 [4] = test: MAb inhibition ELISA; free peptide against 458-3 binding to the coated target conjugate
MAb 401-2 = test: MAb inhibition ELISA; free peptide inhibits 401-2 binding to the coated G34 N-terminal peptide-BSA

Row | Binder | Inhibition at 10 nmol/ml (250 pmoles/well) (MAb 458-2) | Inhibition at 10 nmol/ml (250 pmoles/well) (MAb 458-3 [1]) | Inhibition at 10 nmol/ml (250 pmoles/well) (MAb 458-4) | Inhibition at 10 nmol/ml (250 pmoles/well) (MAb 458-1 [2]) | Inhibition at 10 nmol/ml (250 pmoles/well) (MAb 458-5) | IC50 (MAb 445-1) | IC50 (MAb 445-2) | IC50 (MAb 400-2) | IC50 (MAb 400-4) | Inhibition at 10 nmol/ml (250 pmoles/well) (MAb 458-1 [3]) | IC50 (MAb 400-3) | IC50 (MAb 400-1) | Inhibition at 10 nmol/ml (250 pmoles/well) (MAb 458-3 [4]) | IC50 (MAb 401-2)
1 | B1 | 84.8% | 84.8% | 83.4% | 93.8% | 92% | – | – | – | – | – | – | – | – | –
2 | B2 | – | – | – | – | – | 4000 nM | 13000 nM | – | – | – | – | – | – | –
3 | B3 | – | – | – | – | – | 700 nM | 5000 nM | 77 nM | 699 nM | 2.1% | 1390 nM | 1790 nM | – | –
4 | B4 | – | – | – | – | – | – | – | – | – | – | – | – | 1.2% | –
5 | B5 | 86% | 92.4% | 88.4% | 94.3% | 91.9% | – | – | 85 nM | 620 nM | – | 1080 nM | 2030 nM | – | –
6 | B6 | 84.5% | 90.7% | 86.7% | 93.5% | 91.5% | – | – | – | – | – | – | – | – | 700 nM
